Experimental findings from the RNAGym collection of RNA variant scans (doi:10.7554/elife.80360) are described below.

B1: Hairpin Ribozyme (parent)
chain: GUCCUCUUUCACGUGCGCGUGAAAGAGAGAAGUGAACCAGAGAAACACACGUUGUGGUAUAUUACCUGGUA

The variants in the data set derive from B1. Kind of data set: self-cleavage, relative activity (ratio to wild type); higher = more cleavage; co-transcriptional.
Turning to A35G A44G, the self-cleavage amounted to 0.177.
Turning to A11U G42C, the self-cleavage is 0.271.
As for G15U G25U, the self-cleavage was determined as 0.778.
The figure for C38U A64U is 0.301; for A45G A61U it is 0.0962.
The figure for A11G U52C is 0.944; for C6A A44G it is 0.113.
The value for C38G A49G was 0.0605; that for U2G A11U was 0.295; that for U2A G69U was 0.151.
On to A39U U60C, for which the self-cleavage was determined as 0.378.
The value for A30G A44U was 0.227; that for U8C G32C was 0.0916.
The value for U8G C66U was 0.412.
With C18G A71G, the self-cleavage was 0.932.
The value for A36G U62G was 0.221; that for U9G G42C was 0.239; that for A23U U53G was 0.696.
As for G32U G40U, the self-cleavage stood at 0.152.
The value for C12U A30G was 0.173; that for U9G U70C was 0.72.
The value for U9G U70A was 0.812; that for C6A U33A was 0.129; that for U52G G69C was 0.478.
The figure for G17C A61C is 0.078; for G1A U52A it is 0.155; for C38U U62C it is 0.273.
Take G29A G42U: the self-cleavage worked out at 0.197.
The value for C38G G69A was 0.196.
As to G51U U67A, the self-cleavage amounted to 0.236.
The figure for A39U C50U is 0.204; for G25A U55C it is 0.208.
Regarding U14A C66A, the self-cleavage stood at 0.0937.
The value for A26C U60C was 0.602; that for U2G G19C was 0.338; that for C16U G42A was 0.225.
The figure for A39U C46U is 0.114.
On to C50U A61C, for which the self-cleavage came to 0.181.
The value for G25A A47G was 0.277; that for C6A G27A was 0.126.
The figure for G32C U63C is 0.0888.
The figure for A11G A71G is 0.814; for U2C U62G it is 0.0944; for C4A U20A it is 0.0852.
Take U8A G13U: the self-cleavage is 0.551.
The value for C6G A36C was 0.307.
On to U9C A43C, for which the self-cleavage amounted to 0.102.
The value for G51C U60G was 0.62.
The figure for A41G G56U is 0.195; for G32U U53G it is 0.103.
The figure for A44C G68C is 0.0374; for C4G U14C it is 0.125; for U9G G21A it is 0.554.
For the variant G13A U58A, the self-cleavage amounted to 0.574.
The value for U2C U20A was 0.25; that for U2C U20G was 0.0615.
The figure for A11U A31G is 0.464.
The value for G25C A47G was 0.071; that for G19C G68C was 0.222; that for G1A A47C was 0.124.
On to C4U A30U, for which the self-cleavage came out at 0.13.
In the case of C4U G21A, the self-cleavage was 0.389.
The value for A26C C46U was 0.172; that for A31U A43U was 0.0597; that for A11U C65A was 0.719.
The figure for C10U A71C is 1.23.
The value for G15C C48G was 0.109; that for C16A C50A was 0.361; that for A26G A31C was 0.114.
Consider G17A C66A, for which the self-cleavage was determined as 0.26.
As to A47G C65U, the self-cleavage amounted to 0.156.
The figure for G51A U67C is 0.296; for U7C C66G it is 0.0988; for G13U C16U it is 0.818.
The value for G54U A59C was 0.0613; that for U62C G69C was 0.0631.
The figure for C18G U58A is 0.632.
Consider G51U U70A, for which the self-cleavage was found to be 1.1.
Turning to C38U U67A, the self-cleavage turned out to be 0.119.
The figure for C38G A45G is 0.259; for U20A A35C it is 0.967.
The figure for U14G C46A is 0.113.
With A47G U67G, the self-cleavage came to 0.0884.
The figure for U5A U33A is 0.145.
The figure for C4G G57U is 0.151; for G25A G68C it is 0.22; for U33A C50G it is 0.211.
The value for U9A A59U was 0.14; that for C3U C4U was 0.39; that for G17U A28U was 0.51.
Regarding U5C U53C, the self-cleavage turned out to be 0.317.
The value for G29A A44G was 0.113.
Turning to U14A U55G, the self-cleavage came out at 0.179.
The value for A49U U55C was 0.349.
The value for C16U C37G was 0.182; that for U5G C10A was 0.235; that for A11U G19A was 0.79.
On to C16G A28G, for which the self-cleavage was 0.959.
Regarding G51A U70A, the self-cleavage was 1.09.
For C16G A47U, the self-cleavage was 0.06.
The value for G17C A43U was 0.0572; that for C12U U63A was 0.249; that for G56U A64U was 0.173.
For A43G U58G, the self-cleavage was determined as 0.212.
Turning to C6G U58G, the self-cleavage is 0.498.
For the variant U20C G57C, the self-cleavage worked out at 0.198.
The figure for C3G G32A is 0.0849; for A64U U70G it is 0.155.
The value for G19A G42C was 0.289.
The value for A28U C50U was 0.1.
Turning to A30C G42C, the self-cleavage stood at 0.094.
The figure for C3G C65A is 0.263; for U7G A35G it is 0.916; for G29C U63A it is 0.217.
The value for U52A G57C was 0.0886; that for A31C A71U was 0.1; that for C16G G40C was 0.143.
The figure for U52G G68U is 0.136; for C12U C65A it is 0.88; for A28C C48A it is 0.122.
Turning to G19A C65A, the self-cleavage stood at 0.748.
The value for G40A A64U was 0.139.
The figure for U2A G27U is 0.124.
The value for G34A G54U was 0.719; that for U9C A28C was 0.394.
C6G U70C: the self-cleavage worked out at 0.497.
The figure for G21A C48U is 0.0963.
For A11C G69C, the self-cleavage was 0.182.
The value for A24G U63C was 0.0931; that for A35G A64G was 0.277.
The value for C46U U55G was 0.125; that for A11U U62C was 0.187.
Regarding U60G C66A, the self-cleavage amounted to 0.0537.
The figure for U58C A64C is 0.178; for G13C U14G it is 0.688.
For the variant A31C G32U, the self-cleavage is 0.348.
The value for A43G G51C was 0.107.
The figure for C6A U7G is 0.447; for A11C C38A it is 0.171; for C6A G13C it is 0.341.
The figure for U60C C66A is 0.31; for A59G U63A it is 0.262; for C12U A28G it is 1.19.
Take C18U U20C: the self-cleavage stood at 1.06.
The value for U60C A71C was 1.66; that for U7G G57A was 0.149; that for U20G G34U was 1.5.
With A45U U53C, the self-cleavage was found to be 0.161.
Regarding C10A A71G, the self-cleavage amounted to 0.915.
The value for U5C C12A was 0.566; that for U8C U63A was 0.0901; that for G21U C65A was 0.996.
The value for U5A C48A was 0.0341.
For the variant G51C A71G, the self-cleavage turned out to be 0.814.
In the case of G27U U70G, the self-cleavage came out at 0.228.
The value for A41G C46G was 0.116; that for A35U G69A was 0.184; that for A30G A59C was 0.0815.
The figure for A45C C65G is 0.0639; for A26U G56C it is 0.135.
The figure for A22G U60C is 0.899.
U62G U67A: the self-cleavage worked out at 0.25.
As for A41G A47C, the self-cleavage was 0.189.
The figure for G1A U20G is 0.188.
The value for C65U A71U was 0.441; that for G13C G42A was 0.208.
The figure for G25C A44U is 0.112.
